According to US20250333486A1 (NATIONAL HEALTH RESEARCH INSTITUTES, published 2025):
Positions count from the first letter of the chain named. Names and notes keep the numbering of the source. Values belong to the binder of their own block, whether it stands above or below them.

How the values were obtained:
[1] = molecular target: T1, CD91, cell-surface receptor of eHSP90α, on PANC-1 cells (UniProt Q07954 20-4544, limits assumed); assay: proximity ligation assay (PLA) in PANC-1 cells, 15 µg/ml rHSP90α, with or without 10 µg/ml control IgG, Clone-2 or Clone-6 [d]
T1 construct: whole, on cells; Endogenous receptor on human PANC-1 cells, detected by proximity ligation assay; also called CD91/LRP-1
Procedure: PANC-1 cells seeded onto glass coverslips at a density of 2×10⁵ cells per 22×22-mm coverslip were incubated 16 h with 0.5% serum-containing medium at 37° C. plus a 5% CO₂ humidified atmosphere. The cells were then added with PBS or 15 μg/ml of rHSP90α in the absence or presence of 10 μg/ml of control IgG or the tested anti-HSP90α antibody for another 24-h incubation. The treated cells were then fixed with 3% paraformaldehyde and blocked with the blocking solution provided in the Duolink in situ PLA kit (Olink Bioscience, Uppsala, Sweden). Furthermore, the cell samples were incubated overnight at 4° C. with anti-CD91 antibody (1:80, cat. #550495, BD Biosciences, San Jose, CA, USA) mixed with anti-HSP90α antibody (1:80, cat. #AHP-1339, AbD Serotec, Raleigh, NC, USA) or anti-IKKα antibody (1:80, cat. #3285, Epitomics Co., Burlingame, CA, USA). After washed trice with Tris-buffered saline plus 0.05% Tween 20, the cell samples were incubated with PLA probes for the subsequent ligation and amplification procedure according to the manufacturer's instructions for the Duolink in situ PLA kit. Finally, nuclei were counterstained with 4′,6′-diamidino-2-phenylindole (DAPI; Sigma-Aldrich). Images were photographed and analyzed using Leica TCS SP5 II confocal microscope and LAS AF Lite 4.0 software (Leica, Wetzlar, Germany).

[2] = molecular target: T2, recombinant 732-amino acid full-length human HSP90α (rHSP90α; PeproTech) (human, UniProt P07900 1-732, limits assumed); assay: SPR, Biacore T200, fitted to a 1:1 interaction model [b]
T2 construct: Bought protein used as immunogen, ELISA coat (12.5 ng/ml), Biacore analyte and cell stimulus; also called recombinant human HSP90α; eHSP90α
Procedure: (§1) To measure the HSP90α-binding characteristics of anti-HSP90α antibodies, binding kinetic assays were performed using Biacore T200 (Cytiva Co., Marlborough, MA, USA). The interested anti-HSP90α antibodies were applied onto Protein A Series S sensor chips as ligands to achieve approximately 3000˜5000 response units. A series of concentrations of rHSP90α (1.5625-100 nM) in HBS-EP+ buffer were injected over the chip surface. The association was monitored for 60 sec, and the final dissociation time was 1500 sec.

[3] = molecular target: T3, EDKEEEKEKE; assay: peptide-scanning ELISA on plates coated with 10-a.a. peptides [b]
T3 construct: HSP90α a.a
T3 peptide: EDKEEEKEKE
From the text: (§2) At first, the domain scanning strategy was used to roughly delineate the HSP90α region responsible for the binding with our prepared antibodies. The above-mentioned full-length HSP90α and its 3 truncated fragments were employed to coat 96-well ELISA plates for assaying the binding activities of the tested mouse monoclonal antibodies. […] Therefore, in peptide scanning strategy, a 132 peptide library was synthesized by Mimotopes Pty. Ltd. (Melbourne, Victoria, Australia), consisting of a series of 10-a.a. peptides offset by 2 a.a. to span the sequence of the a.a. […] This series of peptides were used to coat 96-well ELISA plates for assaying the binding activities of the tested antibodies. […] These peptides were subjected to ELISA as described above.

[4] = molecular target: T4, KPEIEDVGSD; assay: as above
T4 construct: HSP90α a.a
T4 peptide: KPEIEDVGSD
From the text: as §2

[5] = molecular target: T5, EIEDVGSDEE; assay: as above
T5 construct: HSP90α a.a
T5 peptide: EIEDVGSDEE
From the text: as §2

[6] = molecular target: T6, EDVGSDEEEE; assay: as above
T6 construct: HSP90α a.a
T6 peptide: EDVGSDEEEE
From the text: as §2

[7] = molecular target: T7, VGSDEEEEKK; assay: as above
T7 construct: HSP90α a.a
T7 peptide: VGSDEEEEKK
From the text: as §2

[8] = molecular target: T8, DKEVSDDEAE; assay: as above
T8 construct: HSP90α a.a
T8 peptide: DKEVSDDEAE
From the text: as §2

[9] = molecular target: T2, recombinant 732-amino acid full-length …; assay: SPR, Biacore T200; antibody captured on Protein A chip, rHSP90α 1.5625-100 nM as analyte; 1:1 model
Procedure: as §1

[10] = molecular target: T9, KEKEEKESED; assay: peptide-scanning ELISA on plates coated with 10-a.a. peptides [c]
T9 construct: HSP90α a.a
T9 peptide: KEKEEKESED
From the text: as §2

[11] = molecular target: T10, SDEEEEKKDG; assay: as above
T10 construct: HSP90α a.a
T10 peptide: SDEEEEKKDG
From the text: as §2

[12] = molecular target: T11, EVSDDEAEEK; assay: as above
T11 construct: HSP90α a.a
T11 peptide: EVSDDEAEEK
From the text: as §2

[13] = molecular target: T12, a.a. 630~732; assay: domain-scanning ELISA on plates coated with full-length or truncated His-tagged HSP90α [a]
T12 construct: not shown: left out of the chain
From the text: as §2
As listed in the above Table 3, HH01 antibody is capable of binding specifically to the human HSP90α with novel amino acid (a.a.) sequences in the complementarity determining regions (CDRs), and therefore we intended to identify which region of HSP90α was bound by HH01 antibody. In a preliminary study, we employed the strategy of HSP90α domain scanning to delineate the HSP90α region responsible for the binding with Clone-2 antibody. […] Subsequently, the binding activities of Clone-2 antibody to the full-length and truncated HSP90α were assayed by a conventional ELISA method.

T1 sequence (Q07954 20-4544 limits assumed): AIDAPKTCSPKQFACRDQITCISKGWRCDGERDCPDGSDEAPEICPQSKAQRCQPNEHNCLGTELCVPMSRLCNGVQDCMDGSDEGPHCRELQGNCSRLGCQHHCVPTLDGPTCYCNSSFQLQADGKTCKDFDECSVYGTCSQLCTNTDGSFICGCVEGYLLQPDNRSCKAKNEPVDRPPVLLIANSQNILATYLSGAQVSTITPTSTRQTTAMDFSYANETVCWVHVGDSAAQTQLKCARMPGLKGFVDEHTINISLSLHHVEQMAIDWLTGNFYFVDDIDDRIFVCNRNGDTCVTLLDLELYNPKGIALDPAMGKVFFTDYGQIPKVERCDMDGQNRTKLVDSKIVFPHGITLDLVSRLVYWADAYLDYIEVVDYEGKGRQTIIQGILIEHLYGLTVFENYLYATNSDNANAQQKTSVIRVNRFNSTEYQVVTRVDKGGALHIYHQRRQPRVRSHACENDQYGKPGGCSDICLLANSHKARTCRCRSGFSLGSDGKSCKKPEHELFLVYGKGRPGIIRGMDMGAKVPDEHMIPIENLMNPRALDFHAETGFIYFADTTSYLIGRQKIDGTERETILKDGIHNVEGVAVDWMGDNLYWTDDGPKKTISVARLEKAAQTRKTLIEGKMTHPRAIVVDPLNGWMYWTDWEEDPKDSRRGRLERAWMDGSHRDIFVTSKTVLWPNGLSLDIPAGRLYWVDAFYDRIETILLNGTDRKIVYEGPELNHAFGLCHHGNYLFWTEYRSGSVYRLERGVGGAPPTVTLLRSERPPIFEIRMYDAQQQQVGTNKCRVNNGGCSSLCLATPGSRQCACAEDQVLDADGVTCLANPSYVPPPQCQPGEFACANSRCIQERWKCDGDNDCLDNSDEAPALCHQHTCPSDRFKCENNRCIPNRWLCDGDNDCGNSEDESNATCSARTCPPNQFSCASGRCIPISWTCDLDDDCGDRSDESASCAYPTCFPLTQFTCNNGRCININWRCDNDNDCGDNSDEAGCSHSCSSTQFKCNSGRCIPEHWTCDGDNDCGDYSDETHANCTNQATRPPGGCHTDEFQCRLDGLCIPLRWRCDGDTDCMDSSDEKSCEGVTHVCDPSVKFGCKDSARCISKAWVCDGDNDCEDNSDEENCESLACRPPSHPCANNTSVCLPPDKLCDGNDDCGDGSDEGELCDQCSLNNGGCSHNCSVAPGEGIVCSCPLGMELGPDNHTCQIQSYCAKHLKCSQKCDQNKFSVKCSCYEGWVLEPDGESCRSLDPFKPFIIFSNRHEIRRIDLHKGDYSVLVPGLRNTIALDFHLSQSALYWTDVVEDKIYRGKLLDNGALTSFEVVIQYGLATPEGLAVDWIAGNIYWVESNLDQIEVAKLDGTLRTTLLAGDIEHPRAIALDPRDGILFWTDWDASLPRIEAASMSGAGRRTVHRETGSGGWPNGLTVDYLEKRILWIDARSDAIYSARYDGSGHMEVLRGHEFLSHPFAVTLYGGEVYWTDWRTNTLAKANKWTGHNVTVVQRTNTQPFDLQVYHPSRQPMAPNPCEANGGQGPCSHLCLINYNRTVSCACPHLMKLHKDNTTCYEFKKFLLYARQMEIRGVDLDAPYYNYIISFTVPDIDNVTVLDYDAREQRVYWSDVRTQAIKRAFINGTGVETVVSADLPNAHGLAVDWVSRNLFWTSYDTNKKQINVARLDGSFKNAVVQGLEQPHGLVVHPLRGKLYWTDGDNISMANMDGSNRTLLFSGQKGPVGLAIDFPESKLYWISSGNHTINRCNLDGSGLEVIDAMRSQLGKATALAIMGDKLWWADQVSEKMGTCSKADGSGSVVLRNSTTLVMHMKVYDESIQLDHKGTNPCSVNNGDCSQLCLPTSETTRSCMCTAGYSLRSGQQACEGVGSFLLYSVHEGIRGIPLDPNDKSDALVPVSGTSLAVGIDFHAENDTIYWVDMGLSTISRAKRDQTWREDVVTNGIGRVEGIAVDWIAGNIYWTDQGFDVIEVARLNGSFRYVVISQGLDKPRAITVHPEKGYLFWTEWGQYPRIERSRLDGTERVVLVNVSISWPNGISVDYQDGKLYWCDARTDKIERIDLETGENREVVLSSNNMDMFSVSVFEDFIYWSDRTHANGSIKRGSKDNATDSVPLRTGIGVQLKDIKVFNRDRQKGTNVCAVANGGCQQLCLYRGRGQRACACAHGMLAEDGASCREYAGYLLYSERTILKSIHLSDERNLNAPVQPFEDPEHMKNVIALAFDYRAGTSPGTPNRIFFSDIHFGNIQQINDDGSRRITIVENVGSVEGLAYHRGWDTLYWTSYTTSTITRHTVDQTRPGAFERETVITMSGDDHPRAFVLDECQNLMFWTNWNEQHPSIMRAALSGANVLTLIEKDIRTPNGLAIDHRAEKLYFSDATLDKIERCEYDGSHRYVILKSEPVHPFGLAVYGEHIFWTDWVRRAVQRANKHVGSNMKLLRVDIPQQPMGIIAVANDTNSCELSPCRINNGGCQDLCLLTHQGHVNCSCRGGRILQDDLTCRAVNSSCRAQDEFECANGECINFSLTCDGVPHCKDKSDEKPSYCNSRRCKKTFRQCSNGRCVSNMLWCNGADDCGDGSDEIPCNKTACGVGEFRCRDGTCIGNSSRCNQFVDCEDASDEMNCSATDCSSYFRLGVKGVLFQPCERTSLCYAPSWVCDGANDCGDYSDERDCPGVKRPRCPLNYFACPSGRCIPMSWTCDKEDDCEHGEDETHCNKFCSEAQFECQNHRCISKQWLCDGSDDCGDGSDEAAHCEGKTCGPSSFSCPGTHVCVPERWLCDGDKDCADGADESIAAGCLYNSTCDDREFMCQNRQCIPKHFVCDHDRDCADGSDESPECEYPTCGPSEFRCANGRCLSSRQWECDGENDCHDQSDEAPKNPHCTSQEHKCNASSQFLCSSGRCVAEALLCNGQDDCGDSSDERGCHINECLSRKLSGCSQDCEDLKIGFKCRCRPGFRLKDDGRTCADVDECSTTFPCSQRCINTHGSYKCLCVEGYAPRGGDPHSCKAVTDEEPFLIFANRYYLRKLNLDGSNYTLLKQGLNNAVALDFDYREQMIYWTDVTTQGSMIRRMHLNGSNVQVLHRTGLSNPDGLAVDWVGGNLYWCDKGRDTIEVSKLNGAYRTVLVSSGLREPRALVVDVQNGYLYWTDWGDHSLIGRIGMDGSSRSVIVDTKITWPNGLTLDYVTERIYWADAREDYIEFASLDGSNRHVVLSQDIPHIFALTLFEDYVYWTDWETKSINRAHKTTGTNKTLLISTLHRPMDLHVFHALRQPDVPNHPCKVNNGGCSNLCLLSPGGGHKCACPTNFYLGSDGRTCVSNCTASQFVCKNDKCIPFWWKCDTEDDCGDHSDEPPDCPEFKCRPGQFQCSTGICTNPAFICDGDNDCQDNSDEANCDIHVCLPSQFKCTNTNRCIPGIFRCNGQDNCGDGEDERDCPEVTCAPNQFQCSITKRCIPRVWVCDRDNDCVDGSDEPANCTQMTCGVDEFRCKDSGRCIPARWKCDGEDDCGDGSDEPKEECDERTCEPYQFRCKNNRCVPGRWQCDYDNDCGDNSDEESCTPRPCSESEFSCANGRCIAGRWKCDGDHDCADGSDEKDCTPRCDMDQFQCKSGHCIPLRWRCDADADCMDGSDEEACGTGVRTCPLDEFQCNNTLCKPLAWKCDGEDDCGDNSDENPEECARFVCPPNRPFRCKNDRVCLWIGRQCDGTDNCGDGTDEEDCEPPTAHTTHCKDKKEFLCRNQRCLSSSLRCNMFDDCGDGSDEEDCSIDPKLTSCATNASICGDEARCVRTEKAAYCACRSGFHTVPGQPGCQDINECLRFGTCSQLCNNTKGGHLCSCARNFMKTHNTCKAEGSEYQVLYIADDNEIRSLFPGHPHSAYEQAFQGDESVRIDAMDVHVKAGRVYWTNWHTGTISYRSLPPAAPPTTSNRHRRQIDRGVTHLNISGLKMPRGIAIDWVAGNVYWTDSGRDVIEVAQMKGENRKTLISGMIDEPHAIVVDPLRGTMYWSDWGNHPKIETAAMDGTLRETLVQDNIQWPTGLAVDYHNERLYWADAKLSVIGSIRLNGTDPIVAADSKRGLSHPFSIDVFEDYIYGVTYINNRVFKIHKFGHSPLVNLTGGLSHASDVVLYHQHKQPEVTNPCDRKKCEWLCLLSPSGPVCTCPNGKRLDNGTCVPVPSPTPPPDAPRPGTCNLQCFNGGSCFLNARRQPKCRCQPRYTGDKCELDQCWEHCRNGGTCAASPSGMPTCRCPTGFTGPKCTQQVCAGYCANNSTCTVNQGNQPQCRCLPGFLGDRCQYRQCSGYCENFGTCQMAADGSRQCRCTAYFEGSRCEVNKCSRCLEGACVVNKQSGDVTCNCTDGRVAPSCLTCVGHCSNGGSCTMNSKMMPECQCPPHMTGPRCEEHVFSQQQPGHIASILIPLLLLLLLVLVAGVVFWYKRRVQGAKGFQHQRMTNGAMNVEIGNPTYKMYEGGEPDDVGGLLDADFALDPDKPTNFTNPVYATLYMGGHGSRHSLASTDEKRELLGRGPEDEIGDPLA
T12 sequence (chain, as listed by the source limits assumed): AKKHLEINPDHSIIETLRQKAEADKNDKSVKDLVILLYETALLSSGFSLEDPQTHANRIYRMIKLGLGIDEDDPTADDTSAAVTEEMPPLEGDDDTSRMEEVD

binding result [1]: binds
B1: IKKα (enzyme, human, UniProt O15111 1-745, looked up)
single chain: MERPPGLRPGAGGPWEMRERLGTGGFGNVCLYQHRELDLKIAIKSCRLELSTKNRERWCHEIQIMKKLNHANVVKACDVPEELNILIHDVPLLAMEYCSGGDLRKLLNKPENCCGLKESQILSLLSDIGSGIRYLHENKIIHRDLKPENIVLQDVGGKIIHKIIDLGYAKDVDQGSLCTSFVGTLQYLAPELFENKPYTATVDYWSFGTMVFECIAGYRPFLHHLQPFTWHEKIKKKDPKCIFACEEMSGEVRFSSHLPQPNSLCSLVVEPMENWLQLMLNWDPQQRGGPVDLTLKQPRCFVLMDHILNLKIVHILNMTSAKIISFLLPPDESLHSLQSRIERETGINTGSQELLSETGISLDPRKPASQCVLDGVRGCDSYMVYLFDKSKTVYEGPFASRSLSDCVNYIVQDSKIQLPIIQLRKVWAEAVHYVSGLKEDYSRLFQGQRAAMLSLLRYNANLTKMKNTLISASQQLKAKLEFFHKSIQLDLERYSEQMTYGISSEKMLKAWKEMEEKAIHYAEVGVIGYLEDQIMSLHAEIMELQKSPYGRRQGDLMESLEQRAIDLYKQLKHRPSDHSYSDSTEMVKIIVHTVQSQDRVLKELFGHLSKLLGCKQKIIDLLPKVEVALSNIKEADNTVMFMQGKRQKEIWHLLKIACTQSSARSLVGSSLEGAVTPQTSAWLPPTSAEHDHSLSCVVTPQDGETSAQMIEENLNCLGHLSTIIHEANEEQGNSMMNLDWSWLTE
notes: endogenous, in cells; partner of CD91 in the proximity ligation assay

koff [2]: 6.7e-05 s⁻¹ | kon [2]: 711000 M⁻¹ s⁻¹ | binding result [3]: no binding | binding result [4]: no binding | binding result [5]: no binding | binding result [6]: no binding | binding result [7]: no binding | binding result [8]: no binding | Kd [9]: 0.094 nM
B2: Clone-2-chimera anti-HSP90α antibody (antibody, V domains shown)
VH: EVQVVESGGGLVQPKGSLKLSCAASGFTFKTYAMNWVRQAPGKGLEWVARIRSKSRNYATYYADSVKDRFTISRDDSQFMFYLQMNNLKTEDTAMYYCVVGGSGFDYWGQGTTLTVSS
VL: DVLMTQTPLSLPVSLGDQASISCRSSQSIVHSNGNTYLEWYLQKPGQSPKLLIYKVSNRFSGVPDRFSGSGSGTDFTLSISRVEAGDLGVYYCFQGSHVPWTFGGGTKLEIK
notes: Clone-2 VH and VL joined to human IgG1 constant region (pFUSEss-CHIg-hG1e1; Fc with mutations at Q250T, E356D, M358L, L428M) and human κ constant region (pFUSE2ss-CLIg-hk); expressed in ExpiCHO cells

koff [2]: 0.000137 s⁻¹ | kon [2]: 729000 M⁻¹ s⁻¹ | binding result [10]: no binding | binding result [11]: no binding | binding result [12]: no binding | Kd [9]: 0.187 nM
B3: HH01 anti-HSP90α antibody (Clone-2-hA) (antibody, V domains shown)
VH: B2 VH with V4L, K15G, K19R, K43Q, Q78K, F79N, M80Q, K89R, M95V
VL: B2 VL with L3V, K50Q, S79T, R82S, G86E
notes: expressed in ExpiCHO cells; also called HH01 antibody

binding result [13]: no binding
B4: Clone-2 anti-HSP90α antibody (mouse monoclonal) (antibody, V domains shown)
VH: B2 VH
VL: B2 VL
notes: Mouse hybridoma antibody, IgG2b isotype with κ light chains; First tested as culture supernatant, then purified; also called Clone-2 antibody; parental Clone-2
